According to paper PMC7736791 (Nucleic Acids Research, 2020):
Values joined by “and” are separate entries in the source; they are usually repeats but may differ in a detail not shown here. Identical values can stand only once. Like-named read-outs stand apart in the source and are kept apart here.

B1: AAV2 Rep68 origin binding domain (OBD) (domain or fragment, adeno-associated virus 2 (AAV2))
chain: MPGFYEIVIKVPSDLDGHLPGISDSFVNWVAEKEWELPPDSDMDLNLIEQAPLTVAEKLQRDFLTEWRRVSKAPEALFFVQFEKGESYFHMHVLVETTGVKSMVLGRFLSQIREKLIQRIYRGIEPTLPNWFAVTKTRNGAGGGNKVVDECYIPNYLLPKTQPELQWAWTNMEQYLSACLNLTERKRLVAQHLTHVSQTQEQNKENQNPN

Tests used:
[1] = target: AAV2 Rep68* (Rep68 C151S) (adeno-associated virus 2 (AAV2)) (UniProt P03132); test: cryo-EM structure
[2] = target: AAV2 Rep68* (Rep68 C151S) (adeno-associated virus 2 (AAV2)) (UniProt P03132); test: cryo-EM structure; remark: listed apart in the source
[3] = target: AAV2 Rep68* (Rep68 C151S) (adeno-associated virus 2 (AAV2)) (UniProt P03132); test: cryo-EM structure; remark: listed apart in the source
[4] = target: AAV2 Rep68* (Rep68 C151S) (adeno-associated virus 2 (AAV2)) (UniProt P03132); test: cryo-EM structure; remark: listed apart in the source
[5] = target: AAV2 Rep68* (Rep68 C151S) (adeno-associated virus 2 (AAV2)) (UniProt P03132); test: cryo-EM structure; remark: listed apart in the source
[6] = target: the molecule itself; test: cross-linking

Molecule | stoichiometry N [1] | stoichiometry N [2] | stoichiometry N [3] | stoichiometry N [4] | stoichiometry N [5] | stoichiometry N [6]
AAV2 Rep68* (Rep68 C151S) (from UniProt P03132 1-536) (enzyme) | 6 | 7 | 6 and 7 | 7 | 8 | 
B1 |  |  |  |  |  | 8
